Consider two molecules from article PMC2064313 (The Journal of Cell Biology, 2006).

Experiment [1] has as its target T1, MBP-tagged FRLα C terminus (residues 612–1,094) (UniProt Q9JL26-1 612-1094).
T1 sequence: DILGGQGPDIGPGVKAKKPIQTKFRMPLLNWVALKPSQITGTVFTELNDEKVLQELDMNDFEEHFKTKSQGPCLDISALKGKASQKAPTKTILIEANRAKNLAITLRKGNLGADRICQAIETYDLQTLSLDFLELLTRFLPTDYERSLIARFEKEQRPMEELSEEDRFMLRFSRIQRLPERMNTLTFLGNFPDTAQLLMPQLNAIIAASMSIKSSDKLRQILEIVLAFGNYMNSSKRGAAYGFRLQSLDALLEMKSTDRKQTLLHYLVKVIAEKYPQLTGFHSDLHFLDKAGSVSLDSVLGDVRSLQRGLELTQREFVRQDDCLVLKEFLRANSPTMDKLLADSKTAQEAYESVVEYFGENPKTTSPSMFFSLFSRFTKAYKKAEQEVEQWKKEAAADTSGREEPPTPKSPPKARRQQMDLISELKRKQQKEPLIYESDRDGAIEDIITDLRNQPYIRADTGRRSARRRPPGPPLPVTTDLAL
Description: pull-down.

The target in experiment [2] is T2, FRLα C terminus (residues 612–1,094), untagged (UniProt Q9JL26-1 612-1094).
T2 sequence: T1 sequence
As to the kind of experiment: pull-down.

Positions count from the first letter of the chain named. In names and notes the source's numbering stands.

B1: GST-tagged FRLα N terminus (residues 1–450) (domain or fragment)
chain: MGNAAGSAEQPAGPTASPPKQPAVPKQPMPAAGELEERFTRVLNCMNLPPDKVQLLSQYDNEKKWELICDQERFQVKNPPAAYIQKLKSYLDTGGVSRKVASDWMSNLGFKRRVQESTQVLRELETSLRTNHIGWVQEFLNEENRGLDVLLEYLAFAQCSVAYDMESTDSVASGAEKSKPLDQSVEDLSKAPPSSVPKSRLTIKLTPAHSRKALRNSRIVSQKDDVHVCIMCLRAIMNYQSGFSLVMNHPACVNEIALSLNNKSPRTKALVLELLAAVCLVRGGHDIILAAFDNFKEVCGEQHRFEKLMEYFRHEDSNIDFMVACMQFINIVVHSVENMNFRVFLQYEFTHLGLDLYLERLRLTESDKLQVQIQAYLDNVFDVGTLLEETETKNAVLEHMEELQEQVATLTERLRDTENDSMAKIAELEKQLSQARKELETLRERFSEST
With B1, the binding result in experiment [1] and in experiment [2] was “binds” in each case.

B2: GST–N terminus T126D of FRLα (residues 1–450) (domain or fragment)
chain: B1 chain with T126D
For the molecule B2, the binding result in experiment [2] is “binds”.
